Data taken from paper PMC10397247.

How the values were obtained:
Assay in all cases: two-hybrid library CCNG1;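 also: natural log of median RNA to DNA barcode read ratio; higher means stronger binding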
4H2745-bN = molecular target: T1, 4H2745-bN
T1 chain: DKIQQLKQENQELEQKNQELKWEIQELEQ

4H3961-bN = molecular target: T2, 4H3961-bN
T2 chain: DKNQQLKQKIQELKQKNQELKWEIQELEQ

4H3907-bN = molecular target: T3, 4H3907-bN
T3 chain: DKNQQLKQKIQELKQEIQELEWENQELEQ

4H363-bN = molecular target: T4, 4H363-bN
T4 chain: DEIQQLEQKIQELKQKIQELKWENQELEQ

4H344-bN = molecular target: T5, 4H344-bN
T5 chain: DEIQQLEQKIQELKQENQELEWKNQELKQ

4H470-bN = molecular target: T6, 4H470-bN
T6 chain: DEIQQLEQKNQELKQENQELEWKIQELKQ

4H850-bA = molecular target: T7, 4H850-bA
T7 chain: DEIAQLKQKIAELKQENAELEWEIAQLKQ

P7bHq = molecular target: T8, P7bHq
T8 chain: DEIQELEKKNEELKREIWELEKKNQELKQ

P6bHq = molecular target: T9, P6bHq
T9 chain: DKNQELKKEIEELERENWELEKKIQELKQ

P5bHq = molecular target: T10, P5bHq
T10 chain: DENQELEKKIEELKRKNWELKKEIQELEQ

P4bHq = molecular target: T11, P4bHq
T11 chain: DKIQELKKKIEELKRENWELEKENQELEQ

P8bHq = molecular target: T12, P8bHq
T12 chain: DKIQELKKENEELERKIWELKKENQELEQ

P2bHq = molecular target: T13, P2bHq
T13 chain: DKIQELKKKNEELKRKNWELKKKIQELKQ

P9bHq = molecular target: T14, P9bHq
T14 chain: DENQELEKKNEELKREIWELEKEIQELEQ

Row | Binder | interaction score (4H2745-bN) | interaction score (4H3961-bN) | interaction score (4H3907-bN) | interaction score (4H363-bN) | interaction score (4H344-bN) | interaction score (4H470-bN) | interaction score (4H850-bA) | interaction score (P7bHq) | interaction score (P6bHq) | interaction score (P5bHq) | interaction score (P4bHq) | interaction score (P8bHq) | interaction score (P2bHq) | interaction score (P9bHq)
1 | DKIQQLKQENQELEQKNQELKWEIQELEQ [4H2745-bN] | -0.754 | -0.46 | -1.56 | -0.693 | -0.786 | 1.07 | -0.544 | – | – | – | – | – | – | –
2 | DKIQELKKKNEELKRKNWELKKKIQELKQ [P2bHq] | – | – | – | – | – | – | – | 0.668 | 1.33 | 0.419 | 0.0617 | 0.361 | 0.693 | -1.74
